Consider 167 variants from the RNAGym collection of RNA variant scans (doi:10.7554/elife.80360).

B1: CPEB3 Ribozyme (parent)
chain: GGGGGCCACAGCAGAAGCGUUCACGUCGCGGCCCCUGUCAGAUUCUGGUGAAUCUGCGAAUUCUGCUGU

This data set covers variants of B1. Description: self-cleavage, relative activity (ratio to wild type); higher = more cleavage; co-transcriptional.
As to C7G C39G, the self-cleavage was found to be 0.236.

Turning to C7G U55G, the self-cleavage is 0.119.

Consider C7G U55A, for which the self-cleavage turned out to be 0.124.

Take C7G U55C: the self-cleavage is 0.185.

For C7G C35U, the self-cleavage is 0.248.

For the variant C7G C35G, the self-cleavage was 0.0899.

Take C7U G28U: the self-cleavage was 0.146.

In the case of C7U G28C, the self-cleavage turned out to be 0.197.

With C7G G31C, the self-cleavage came out at 0.101.

Consider C7G G31A, for which the self-cleavage amounted to 0.45.

Take C7G G31U: the self-cleavage was found to be 0.521.

For the variant A8C A10G, the self-cleavage is 0.941.

As to A8C A10U, the self-cleavage is 0.966.

With A8C A10C, the self-cleavage was determined as 0.975.

For the variant C7U G11U, the self-cleavage came to 0.715.

Take C7U U36A: the self-cleavage worked out at 0.194.

With C7U U36C, the self-cleavage was found to be 0.806.

As for C7U U36G, the self-cleavage is 0.166.

With C7U G41U, the self-cleavage amounted to 0.692.

As to C7U G41A, the self-cleavage worked out at 0.748.

For C7G A16G, the self-cleavage worked out at 0.329.

As to C7G A16C, the self-cleavage was 0.0882.

Consider C7G A16U, for which the self-cleavage was determined as 0.0326.

C7A U44C: the self-cleavage amounted to 0.432.

With C7A U44G, the self-cleavage worked out at 0.305.

C7A U21C: the self-cleavage stood at 0.266.

Take C7A U21A: the self-cleavage was determined as 0.576.

On to C7A U21G, for which the self-cleavage is 0.077.

For C7G G58U, the self-cleavage turned out to be 0.528.

On to C7G G58C, for which the self-cleavage amounted to 0.285.

For the variant C7A G19C, the self-cleavage came to 0.143.

In the case of C7A G19U, the self-cleavage is 0.163.

Take C7G A10G: the self-cleavage came to 0.671.

Turning to C7G A10U, the self-cleavage came to 0.683.

For C7G A10C, the self-cleavage was 0.703.

As for C7U U62C, the self-cleavage came out at 0.725.

Turning to C7U U62G, the self-cleavage turned out to be 0.595.

As for C7U U62A, the self-cleavage came to 0.638.

With C7G G17A, the self-cleavage stood at 0.11.

For the variant C7U G50U, the self-cleavage stood at 0.96.

Regarding C7U G50C, the self-cleavage amounted to 0.965.

With C7U U64C, the self-cleavage was determined as 0.794.

As to C7U U64A, the self-cleavage is 0.908.

Regarding C7A G41C, the self-cleavage was found to be 0.146.

As for C7U U49G, the self-cleavage was 0.993.

Consider C7U U49C, for which the self-cleavage is 0.854.

Consider C7G A40U, for which the self-cleavage stood at 0.161.

With C7G A40G, the self-cleavage came out at 0.376.

As for C7A G65U, the self-cleavage amounted to 0.198.

Turning to C7A G65A, the self-cleavage was found to be 0.496.

Take C7A G65C: the self-cleavage was 0.314.

For C7G G11A, the self-cleavage is 0.281.

Take A8C A16C: the self-cleavage came to 0.325.

As for A8C A16G, the self-cleavage is 0.962.

Take A8C A16U: the self-cleavage is 0.843.

As for C7A U20G, the self-cleavage worked out at 0.127.

With C7A U20C, the self-cleavage stood at 0.211.

On to C7A U20A, for which the self-cleavage is 0.0917.

C7A U64A: the self-cleavage stood at 0.359.

On to C7A U64G, for which the self-cleavage was found to be 0.355.

As for C7G U53A, the self-cleavage turned out to be 0.219.

Take C7G U53C: the self-cleavage is 0.217.

On to C7G U53G, for which the self-cleavage was 0.147.

On to C7U C45G, for which the self-cleavage was 1.02.

For the variant C7U C45U, the self-cleavage was determined as 0.892.

Turning to C7U C45A, the self-cleavage was determined as 0.919.

For C7G A60G, the self-cleavage is 0.175.

With C7G A60U, the self-cleavage turned out to be 0.187.

With C7U U26C, the self-cleavage is 1.01.

For the variant C7U U69G, the self-cleavage was 1.03.

On to C7U U69C, for which the self-cleavage amounted to 1.06.

Take C7U U69A: the self-cleavage was 1.02.

For C7U A10U, the self-cleavage was 0.981.

On to C7U A10G, for which the self-cleavage is 0.947.

C7U A10C: the self-cleavage was 0.994.

With C7G U49G, the self-cleavage worked out at 0.469.

In the case of C7G U26C, the self-cleavage turned out to be 0.247.

Regarding C7G C66U, the self-cleavage came to 0.459.

In the case of C7G C66G, the self-cleavage is 0.176.

For the variant C7G C66A, the self-cleavage was 0.134.

Regarding C7G G30U, the self-cleavage is 0.564.

C7A U53G: the self-cleavage worked out at 0.177.

For the variant C7G C27U, the self-cleavage turned out to be 0.0215.

With C7G C27G, the self-cleavage was 0.112.

For the variant C7G C9G, the self-cleavage was 0.966.

Consider C7G C9A, for which the self-cleavage was found to be 0.898.

On to C7U C32A, for which the self-cleavage stood at 0.436.

Consider C7U C32G, for which the self-cleavage was 0.148.

Regarding C7U U20A, the self-cleavage was 0.112.

As to C7U U20C, the self-cleavage was 0.158.

In the case of C7U U55A, the self-cleavage came to 0.914.

For the variant C7G G14C, the self-cleavage was determined as 0.0631.

For the variant C7G G14U, the self-cleavage stood at 0.0864.

Regarding C7U A52C, the self-cleavage turned out to be 0.914.

For the variant C7U U46C, the self-cleavage turned out to be 0.973.

Consider C7A G58A, for which the self-cleavage worked out at 0.338.

Turning to C7A G58U, the self-cleavage was found to be 0.645.

For C7U C66G, the self-cleavage amounted to 0.898.

As for A8C A51U, the self-cleavage was 1.01.

Turning to C7U A16C, the self-cleavage was found to be 0.145.

In the case of C7U A16U, the self-cleavage came out at 0.617.

Take C7U G48U: the self-cleavage was 0.966.

For C7U G48A, the self-cleavage turned out to be 0.987.

With C7G U67A, the self-cleavage was 0.773.

With C7G U67C, the self-cleavage was 0.635.

As to C7G G65A, the self-cleavage is 0.162.

As to C7G G65U, the self-cleavage worked out at 0.217.

C7G G65C: the self-cleavage was 0.126.

In the case of C7G A8G, the self-cleavage is 0.346.

Turning to C7G A8C, the self-cleavage worked out at 0.514.

Regarding C7G A8U, the self-cleavage came to 0.614.

In the case of C7U U61C, the self-cleavage is 0.492.

On to C7U U61A, for which the self-cleavage amounted to 0.805.

For C7G G41U, the self-cleavage was 0.121.

With C7G G68U, the self-cleavage is 0.808.

On to C7G G68A, for which the self-cleavage turned out to be 0.824.

Turning to A8C A13C, the self-cleavage amounted to 0.927.

For the variant C7A U55A, the self-cleavage turned out to be 0.333.

On to C7A U55G, for which the self-cleavage came to 0.194.

In the case of C7A U55C, the self-cleavage came to 0.208.

For C7A G31A, the self-cleavage was 0.499.

For the variant C7A G31C, the self-cleavage stood at 0.159.

Consider C7G C24G, for which the self-cleavage is 0.0776.

On to C7G C24U, for which the self-cleavage was determined as 0.107.

Take C7U A8C: the self-cleavage stood at 0.954.

In the case of C7U A8G, the self-cleavage worked out at 0.918.

Turning to C7U A8U, the self-cleavage came to 0.945.

Regarding C7G A51G, the self-cleavage stood at 0.455.

On to C7G A51U, for which the self-cleavage came to 0.34.

Turning to C7G A51C, the self-cleavage worked out at 0.306.

With C7U C63A, the self-cleavage was 0.577.

Regarding C7U C63U, the self-cleavage is 0.948.

With C7G U36C, the self-cleavage stood at 0.0551.

Consider C7G U36G, for which the self-cleavage stood at 0.147.

With C7A U62A, the self-cleavage came out at 0.275.

C7A U62C: the self-cleavage is 0.269.

As to C7U U67G, the self-cleavage amounted to 0.959.

With C7U U67A, the self-cleavage amounted to 0.985.

As to C7U U67C, the self-cleavage was 0.982.

Regarding C7U G37U, the self-cleavage turned out to be 0.214.

C7U A13C: the self-cleavage was determined as 0.871.

Regarding C7U A13G, the self-cleavage turned out to be 0.936.

With C7A U26C, the self-cleavage worked out at 0.357.

On to C7A U26G, for which the self-cleavage turned out to be 0.274.

Regarding C7A G48U, the self-cleavage came to 0.696.

In the case of C7A G48A, the self-cleavage came to 0.67.

For A8C A23C, the self-cleavage turned out to be 0.907.

Turning to A8C A23U, the self-cleavage came out at 1.01.

As to A8C A23G, the self-cleavage came to 0.997.

With C7A G56C, the self-cleavage is 0.243.

Turning to C7A G56A, the self-cleavage was 0.34.

For C7U C33A, the self-cleavage came out at 0.656.

Consider C7U C33U, for which the self-cleavage came out at 0.939.

As to C7U C33G, the self-cleavage was found to be 0.245.

In the case of C7U G19C, the self-cleavage turned out to be 0.155.

For C7U G19A, the self-cleavage worked out at 0.113.

Take C7U G19U: the self-cleavage is 0.247.

Take C7A U38C: the self-cleavage was found to be 0.221.

Turning to C7A U38A, the self-cleavage was 0.191.

With C7U C9U, the self-cleavage was found to be 1.06.

C7U C9G: the self-cleavage came to 1.01.

On to C7U C9A, for which the self-cleavage was determined as 1.05.

Turning to C7A G25C, the self-cleavage is 0.144.

As for C7A G25U, the self-cleavage is 0.111.

C7A G25A: the self-cleavage stood at 0.163.

As to C7U G68C, the self-cleavage stood at 0.673.

As for C7U G68A, the self-cleavage came to 0.971.
